Experimental data published in US12062453B2, “Self-titrating bacterial protease-activated prodrug” (GEORGIA TECH RESEARCH CORPORATION, priority 2018, dated 2024).
Like-named read-outs stand apart in the source and are kept apart here.

What was measured:
[1] = tested on: DH5a Escherichia coli; format: cell-based
Procedure: Bacterial culture and cytotoxicity measurement: DH5a Escherichia coli were a gift from Todd Sulchek's BioMEMS lab at Georgia Tech. E. coli were cultured in LB broth (Lennox) at 37 C and plated on LB agar (Lennox) plates. LB broth was purchased from Millipore Sigma (Burlington, Mass.) and LB agar was purchased from Invitrogen (Carlsbad, Calif.). AMP and locked AMP were custom ordered from Genscript (Piscataway, NJ). […] Concentration was estimated by measuring the OD600 of the bacterial suspension, and assuming an OD600 of 1.000 corresponds to a concentration of 8×10^8 CFU/mL. Bacterial cell viability was measured by making eight 10-fold serial dilutions, and plating three 10 uL spots on an LB agar plate. Plates were incubated overnight at 37° C., and CFUs were counted.

[2] = biological target: T1, OmpT (Escherichia coli, UniProt P09169); format: cell-based, E. coli; set-up: OmpT expressed on the surface of E. coli; endogenous in cells; host or cells: DH5a Escherichia coli
T1 sequence (P09169 21-317): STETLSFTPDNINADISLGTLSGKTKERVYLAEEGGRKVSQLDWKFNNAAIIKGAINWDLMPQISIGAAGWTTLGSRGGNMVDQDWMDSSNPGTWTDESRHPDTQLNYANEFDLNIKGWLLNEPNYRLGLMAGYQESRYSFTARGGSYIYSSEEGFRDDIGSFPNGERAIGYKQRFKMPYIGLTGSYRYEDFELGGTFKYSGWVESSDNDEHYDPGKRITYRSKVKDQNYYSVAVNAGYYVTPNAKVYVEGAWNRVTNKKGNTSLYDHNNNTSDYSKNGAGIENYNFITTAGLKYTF
Procedure: To model the rate of enzymatic activation of locked drugs, L, by OmpT, Michaelis-Menten (MM) kinetics were applied, where the rate of substrate activation is determined by the catalytic rate of the reaction, kcat, and the half-maximal substrate concentration, Km (Equation 1.3). Here it was assumed the system constituted a well-mixed solution of freely diffusing substrates (i.e., locked drug) in large excess, which were valid assumptions for this study since AMP prodrug was present at concentrations ˜102 micromolar in an aqueous environment. Because the total amount of drug is conserved, the MM activation rate of unlocked drug, U, was defined as opposite of the degradation rate of locked drug L (Equation 1.4). A term to account for the loss of active AMPS was included according to a proportionality constant, a*, that represents the number AMP required to kill one E. coli. This term was necessary as AMPS lyse E. coli by intercalating with bacterial membranes (Roversi, et al. ACS Chemical Biology, 9:2-3-2007 (2014)) and therefore are removed from the system and unable to target additional bacteria.
To fit this model to the disclosed system, the values for relevant parameters, including enzymatic efficiency (e.g., kcat, Km), bacterial growth (e.g., r, Bmax), and prodrug activity (e.g., a, a*) were measured (FIGS. 2A-2D, Table 2). This allowed for the prediction of bacteria-prodrug response curves (FIGS. 3B-3J) across nine distinct combinations of kcat and r values, which were experimentally controlled by altering the ambient temperature and concentration of broth (conditions labeled A1-3, B1-3, and C1-3). […] To experimentally validate the model predictions, bacteria were incubated with prodrugs under the defined nine conditions, and the number of living bacteria were quantified longitudinally over the course of a 24 hour treatment window. […]

[3] = biological target: T2, OmpT expressed on the surface of E. coli (Escherichia coli, UniProt P09169); format: cell-based
T2 construct: OmpT expressed on the surface of E. coli; endogenous in cells; host or cells: DH5a Escherichia coli
T2 sequence (P09169 21-317): as above

[4] = biological target: T1, OmpT; format: biochemical, E. coli; set-up: purchased Lifespan Biosciences (Seattle, WA)
Procedure: Protease Cleavage Assays: All protease cleavage assays were performed with a BioTek Cytation 5 Imaging Plate Reader, taking fluorescent measurements at 485/528 nm (excitation/emission) for read-outs measuring peptide substrates terminated with FITC (Fluorescein isothiocyanate). Kinetic measurements were taken every minute over the course of 60-120 minutes at 37 C. Tobacco Etch Virus protease (TEVp), along with its substrate and buffer was obtained from Anaspec, Inc. (Fremont, Calif.). Activity RFU measurements were normalized to time 0 measurement, and as such represent fold change in signal. Outer Membrane Protease T (i.e., OmpT, Protease 7) was purchased from Lifespan Biosciences (Seattle, WA). OmpT fluorescent peptide substrate was custom ordered from Genscript (Piscataway, NJ).

AMP: cationic (polyarginine) antimicrobial peptide, the unlocked drug (KLAKLAKKLAKLAK; Bacterial protease substrate)
Cytotoxicity of unlocked drug (colonies) [1]: significant reduction in colonies | a*, AMP decay (number of AMP required to kill one E. coli) [2]: 2.4e11 AMP/bacteria | a, cytotoxic efficiency, EC50 [2]: 1e11 h^−1, AMP/bacteria/hr

Aprotinin
OmpT activity in samples containing inhibitor ([3]; live E. coli culture plus inhibitor): no activity was observed | Bacteria load after prodrug treatment ([1]; locked AMP plus Aprotinin inhibitor): did not significantly reduce bacteria load | OmpT activity in samples containing inhibitor ([4]; recombinant OmpT plus inhibitor): no activity was observed

DABCYL-RRSRRV-Lys(5-FAM) [OmpT Probe]
OmpT cleavage activity against fluorophore-quencher linker probe ([3]; live E. coli culture): OmpT activity was detected | OmpT cleavage activity against fluorophore-quencher linker probe ([4]; recombinant OmpT): OmpT activity was detected

EEEEEEEEEEEEERRSRRVRRRRRRRRR [Locked AMP (linker 1)]
Bacteria load after prodrug treatment ([1]; prodrug alone): Elimination of bacteria | Km, Michaelis constant [2]: 9e+12 µL⁻¹ | kcat ([2]; condition A1: 37 °C, LB broth 0%): 25 h^−1 × 10^10 | kcat ([2]; condition A2: 30 °C, LB broth 2%): 13.6 h^−1 × 10^10 | kcat ([2]; condition A3: 37 °C, LB broth 2%): 22 h^−1 × 10^10 | kcat ([2]; condition B1: 37 °C, LB broth 4%): 15 h^−1 × 10^10 | kcat ([2]; condition B2: 37 °C, LB broth 6%): 13.6 h^−1 × 10^10 | kcat ([2]; condition B3: 37 °C, LB broth 20%): 1 h^−1 × 10^10 | kcat ([2]; condition C1: 30 °C, LB broth 20%): 5.2 h^−1 × 10^10 | kcat ([2]; condition C2: 30 °C, LB broth 66%): 4 h^−1 × 10^10 | kcat ([2]; condition C3: 37 °C, LB broth 66%): 6 h^−1 × 10^10 | kcat, enzyme catalytic turnover ([2]; range over conditions): 0.7-25e10 h^−1

EEEEEEEEENLYFQGRRRRRRRRR [Locked AMP (linker 3)]
Bacteria load after prodrug treatment ([1]; prodrug alone): did not significantly reduce bacteria load | Bacteria load after prodrug treatment ([1]; prodrug plus TEV protease): Elimination of bacteria
